Experimental data reported in PMC7704405, “Monoclonal Anti-AMP Antibodies Are Sensitive and Valuable Tools for Detecting Patterns of AMPylation” (iScience, 2020).

Biological target: T1, endogenous AMPylated BiP of CHO-K1 cells (Cricetulus griseus (CHO-K1), UniProt G3I8R9, AMP (threonine 518 is the site the paper names for BiP modified by FICD))
T1 construct: ER chaperone BiP/Grp-78, endogenous in CHO-K1 cells; also called endogenous BiP-AMP; source: endogenous, CHO-K1 lysate (untreated or treated with CHX 4 h); also after methanol/chloroform precipitation (denatured)
T1 sequence (G3I8R9 19-654): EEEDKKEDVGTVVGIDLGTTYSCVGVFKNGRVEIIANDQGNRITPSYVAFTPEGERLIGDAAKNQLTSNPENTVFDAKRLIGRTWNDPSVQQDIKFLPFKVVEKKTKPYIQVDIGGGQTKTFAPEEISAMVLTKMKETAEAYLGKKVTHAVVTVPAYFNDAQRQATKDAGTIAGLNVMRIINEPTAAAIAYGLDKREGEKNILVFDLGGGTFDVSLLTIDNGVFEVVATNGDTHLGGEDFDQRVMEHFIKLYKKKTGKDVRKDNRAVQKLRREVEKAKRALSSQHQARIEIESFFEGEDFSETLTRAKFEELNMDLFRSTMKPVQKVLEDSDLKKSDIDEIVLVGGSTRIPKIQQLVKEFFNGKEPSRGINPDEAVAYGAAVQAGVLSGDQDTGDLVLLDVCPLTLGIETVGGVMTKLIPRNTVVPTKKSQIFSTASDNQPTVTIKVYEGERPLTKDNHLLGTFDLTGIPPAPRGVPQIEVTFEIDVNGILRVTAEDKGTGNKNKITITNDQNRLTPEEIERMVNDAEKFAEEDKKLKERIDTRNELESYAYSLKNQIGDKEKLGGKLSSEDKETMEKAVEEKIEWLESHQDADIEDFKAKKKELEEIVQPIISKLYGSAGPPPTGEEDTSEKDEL
Assay: western blot; 20 μg total cell lysate (HEK293, CHO-K1; untreated, TG 2 h or CHX 4 h; in Figure 4A HEK293 lysate spiked with a titration of recombinant BiP-AMP) on the blot, probed with 17G6 in the presence of MnCl2
Settings: one partner purified

B1: monoclonal anti-AMP antibody 17G6 (antibody, V domains shown)
VH: EVQLQQSGPELVKPGASVKISCKASGYTFTDYYLNWVKQSHGKSLEWIGDIHPNKGINKYNQKFKGKATLTVDKSSSTAYMELRSLTSEDSAVYYCARYYGKRYFDVWGTGTMVTVSS
VL: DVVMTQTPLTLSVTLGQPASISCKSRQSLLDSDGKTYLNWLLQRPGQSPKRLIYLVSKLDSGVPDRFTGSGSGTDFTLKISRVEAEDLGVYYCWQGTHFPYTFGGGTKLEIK
notes: Recognises the AMP moiety on modified side chains; no preference for Thr or Tyr; source: mouse hybridoma (C57BL/6, BSA-hapten immunogen); roller bottle cell culture, purified from the supernatant (Protein A); clone supernatant in the selection ELISA
binding result: binds
